Measured values as given in patent publication US11840563B2, “Methods of treating cancer by administering inhibitory RNA molecules targeting protease serine 2 (PRSS2) expression” (Children's Medical Center Corporation, priority 2017, dated 2023).
Each block holds one molecule with its values, some of them ahead of it.

Assays:
Tsp-1 [1] = assay: Western blot of Tsp-1 in lung fibroblasts treated with LN4 CM alone or with STI or Rac1 inhibitor; type: cell-based; conditions: lung fibroblasts (W138 cells), co-treatment with LN4 conditioned media
From the text: FIG. 11. Western blot analysis of Tsp-1 and β-actin expression in lung fibroblasts that were untreated (−) or treated with LN4 CM alone or in combination with STI.
FIG. 12. Western blot analysis of Tsp-1 and β-actin expression in lung fibroblasts that were untreated (−) or treated with LN4 CM alone or in combination with Rac1 inhibitor.
Attention was then turned to the mechanism by which PC3M-LN4 cells repress Tsp-1 in the tumor microenvironment. In doing so, LN4 conditioned media (CM) was fractionated over a Cu^2+/heparin sepharose column with increasing concentrations of NaCl. The eluted fractions were used to treat lung fibroblasts and Tsp-1 induction was analyzed by western blot. […] By analyzing the protein content of the eluted fractions by tandem liquid chromatography/mass spectrometry (LC/MS), a protein was identified that was present in the active fractions of LN4 CM, but not present in the adjacent fractions or the fractions eluted with the same NaCl concentrations from PC3 CM. The identified protein was the serine protease PRSS2. […] Finally, the signaling pathway emanating from LRP1 that was mediating the PRSS2-induced repression of Tsp-1 was sought to be delineated. […]

Tsp-1 [2] = assay: Western blot of Tsp-1/p53 in prostate fibroblasts treated with PC3 conditioned media with or without RAP or PKC inhibitor; type: cell-based; conditions: co-treatment with inhibitor
From the text: FIGS. 6A-6B. Western blot analysis of: (FIG. 6A) Tsp-1 and β-actin expression in prostate fibroblasts that were untreated (−) or treated with conditioned media from PC3 cells alone or in combination with RAP, and (FIG. 6B) Tsp-1, p53 and β-actin expression in prostate fibroblasts that were untreated (−) or treated with conditioned media from PC3 cells alone or in combination with the PKC inhibitor Go 6983 (PKCi).
Thus, in order to determine how prosaposin was able to stimulate the expression of Tsp-1 and p53 in tumor-associated fibroblasts, prostate fibroblasts were treated with PC3-conditioned media in the presence and absence of Receptor Associate Protein (RAP), a competitive inhibitor or LRP1 binding. […] To determine whether prosaposin-mediated stimulation of Tsp-1 utilized this pathway, fibroblasts were treated with CM from PC3 cells in the presence and absence of the PKC inhibitor Gö 6983. […] Thus, it is believed that Prosaposin functions via binding to LRP1.

prosaposin (PSAP) = biological target: T1, prosaposin (PSAP) (Homo sapiens, UniProt P07602); assay: Co-immunoprecipitation of LRP1 peptides with PSAP; type: binding
T1 sequence (P07602 60-524): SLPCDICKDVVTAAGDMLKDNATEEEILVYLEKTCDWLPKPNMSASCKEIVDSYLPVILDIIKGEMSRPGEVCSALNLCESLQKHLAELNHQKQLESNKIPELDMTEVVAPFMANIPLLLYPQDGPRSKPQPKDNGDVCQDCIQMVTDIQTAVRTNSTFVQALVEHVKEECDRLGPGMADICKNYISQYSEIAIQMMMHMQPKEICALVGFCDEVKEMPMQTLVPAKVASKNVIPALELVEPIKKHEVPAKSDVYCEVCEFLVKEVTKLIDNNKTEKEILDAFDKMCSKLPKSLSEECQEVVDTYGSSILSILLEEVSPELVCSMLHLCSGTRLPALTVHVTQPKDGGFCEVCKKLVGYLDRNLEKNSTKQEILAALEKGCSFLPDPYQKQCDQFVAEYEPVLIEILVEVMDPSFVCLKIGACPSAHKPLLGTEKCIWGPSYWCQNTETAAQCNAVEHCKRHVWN
Method: (§1) FIGS. 16A-16B. Co-immunoprecipitation of LRP1 peptides with PSAP (FIG. 16A) or PRSS2 (FIG. 16B).
(§2) To map the binding sites on LRP1 that binds to prosaposin (PSAP) and/or PRSS2, peptides derived from binding domain I of LRP1 (SEQ ID NOs: 3 and 7-18) were tested for their ability to co-immunoprecipitate with PSAP or PRSS2.

PRSS2 = PRSS2 (Homo sapiens, UniProt P07478); assay: Co-immunoprecipitation of LRP1 peptides with PRSS2; type: binding
Method: as §1, §2

Tsp-1 [3] = assay: Western blot of Tsp-1 in lung fibroblasts treated with psap peptide alone or with rhRAP or Y27632; type: cell-based; conditions: co-treatment with peptide, rhRAP 25 or 50 μg
Method: FIGS. 8A-8B. Western blot analysis of Tsp-1 and β-actin expression in lung fibroblasts, which were (FIG. 8A) untreated (−) or treated with psap peptide alone or in combination with 25 or 50 μg of rhRAP, and (FIG. 8B) untreated (−) or treated with psap peptide alone or with Y27632.
In order to delineate the pathway leading from LRP1 to Tsp-1 stimulation by prosaposin, two pathways that have been reported to be stimulated by LRP1 under different conditions were chosen to be examined: Rho and Rac.

Sequence of PRSS2 (P07478 16-247 limits assumed): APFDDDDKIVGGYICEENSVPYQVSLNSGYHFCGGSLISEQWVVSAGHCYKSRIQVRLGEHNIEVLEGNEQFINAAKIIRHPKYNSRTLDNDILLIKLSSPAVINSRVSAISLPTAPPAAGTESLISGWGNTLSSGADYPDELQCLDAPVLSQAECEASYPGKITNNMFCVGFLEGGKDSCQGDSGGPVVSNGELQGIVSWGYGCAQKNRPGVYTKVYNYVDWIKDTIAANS

Molecule: CCN(CC)CCCC(C)Nc1nc(C)cc(Nc2ccc3nc(C)cc(N)c3c2)n1 (racemic) [Rac1 inhibitor, reference compound]
- effect on repression of Tsp-1 by LN4 CM (Tsp-1 [1]): Tsp-1 levels were restored to basal levels

Molecule: COc1ccc2c(c1)c(C1=C(c3c[nH]c4ccccc34)C(=O)NC1=O)cn2CCCN(C)C [Gö 6983]
- stimulation of Tsp-1 by PC3-conditioned media (Tsp-1 [2]): abolished the stimulation
- stimulation of p53 by PC3-conditioned media (Tsp-1 [2]): abolished the stimulation

- binding to PSAP (co-immunoprecipitation) (prosaposin (PSAP); listed as peptide 12): bind to both PRSS2 and PSAP
- binding to PRSS2 (co-immunoprecipitation) (PRSS2; listed as peptide 12): bind to both PRSS2 and PSAP
Molecule: YGTCSQLCTNTDGSFICGCVEGYLL [Peptide 12]

- binding to PSAP (co-immunoprecipitation) (prosaposin (PSAP); listed as peptide 13): bind to both PRSS2 and PSAP
- binding to PRSS2 (co-immunoprecipitation) (PRSS2; listed as peptide 13): bind to both PRSS2 and PSAP
Molecule: FICGCVEGYLLQPDNRSCKAKN [Peptide 13]

Molecule: C[C@@H](N)[C@H]1CC[C@H](C(=O)Nc2ccncc2)CC1 [Peptide Y27632, Y27632, reference compound]
- effect on stimulation of Tsp-1 by the psap peptide (Tsp-1 [3]): completely abrogated

B1: STI: serine protease inhibitor able to inhibit all members of the trypsin family (protein, UniProt P01070 25-205, looked up)
Trypsin inhibitor A: DFVLDNEGNPLENGGTYYILSDITAFGGIRAAPTGNERCPLTVVQSRNELDKGIGTIISSPYRIRFIAEGHPLSLKFDSFAVIMLCVGIPTEWSVVEDLPEGPAVKIGENKDAMDGWFRLERVSDDEFNNYKLVFCPQQAEDDKCGDIGISIDHDDGTRRLVVSKNKPLVVQFQKLDKESL
- effect on repression of Tsp-1 by LN4 CM (Tsp-1 [1]): completely abrogated the repression of Tsp-1

B2: RAP: Receptor Associate Protein (RAP), a competitive inhibitor or LRP1 binding (protein, UniProt P30533 35-357, looked up)
Alpha-2-macroglobulin …: YSREKNQPKPSPKRESGEEFRMEKLNQLWEKAQRLHLPPVRLAELHADLKIQERDELAWKKLKLDGLDEDGEKEARLIRNLNVILAKYGLDGKKDARQVTSNSLSGTQEDGLDDPRLEKLWHKAKTSGKFSGEELDKLWREFLHHKEKVHEYNVLLETLSRTEEIHENVISPSDLSDIKGSVLHSRHTELKEKLRSINQGLDRLRRVSHQGYSTEAEFEEPRVIDLWDLAQSANLTDKELEAFREELKHFEAKIEKHNHYQKQLEIAHEKLRHAESVGDGERVSRSREKHALLEGRTKELGYTVKKHLQDLSGRISRARHNEL
- stimulation of Tsp-1 by PC3-conditioned media (Tsp-1 [2]): no longer stimulated Tsp-1
- effect on stimulation of Tsp-1 by the psap peptide (Tsp-1 [3]): blocked the stimulation of Tsp-1 in a dose-dependent fashion
